How the values were obtained:
Format in all cases: biochemical, Arabidopsis thaliana
[1] = substrate: O=C(O)c1ccccc1O; assay: purified protein; conditions: 2 mM UDP-glucose, 0.1 M Tris-HCl pH 7.5, 30°C
[2] = substrate: CC[C@H](C)[C@H](O)C(=O)O; assay: HPLC with radiodetection of glucosylated product, non-linear regression; conditions: 2 mM 14C-UDP-glucose, 0.1 M Tris-HCl pH 7.5, 30°C
Excerpt: (§1) HPLC with radiodetection of glucosylated product, non-linear regression on UGT76B1

[3] = substrate: CC(C)CC(O)C(=O)O; assay: as above; conditions: 2 mM 14C-UDP-glucose, 0.1 M Tris-HCl pH 7.5, 30°C
Excerpt: as §1

B1: UGT76B1 (Arabidopsis thaliana) (protein)
chain: METRETKPVIFLFPFPLQGHLNPMFQLANIFFNRGFSITVIHTEFNSPNSSNFPHFTFVSIPDSLSEPESYPDVIEILHDLNSKCVAPFGDCLKKLISEEPTAACVIVDALWYFTHDLTEKFNFPRIVLRTVNLSAFVAFSKFHVLREKGYLSLQETKADSPVPELPYLRMKDLPWFQTEDPRSGDKLQIGVMKSLKSSSGIIFNAIEDLETDQLDEARIEFPVPLFCIGPFHRYVSASSSSLLAHDMTCLSWLDKQATNSVIYASLGSIASIDESEFLEIAWGLRNSNQPFLWVVRPGLIHGKEWIEILPKGFIENLEGRGKIVKWAPQPEVLAHRATGGFLTHCGWNSTLEGICEAIPMICRPSFGDQRVNARYINDVWKIGLHLENKVERLVIENAVRTLMTSSEGEEIRKRIMPMKETVEQCLKLGGSSFRNLENLIAYILSF
notes: full coding region including the 5' ATG codon cloned into pDEST15; N-terminal GST fusion; recombinant
Km [1]: 151 ± 28 µM | kcat [1]: 0.331 ± 0.016 s⁻¹ | kcat/Km [1]: 2200 M⁻¹ s⁻¹ | Km [2]: 472 ± 97 µM | kcat [2]: 0.914 ± 0.067 s⁻¹ | kcat/Km [2]: 1940 M⁻¹ s⁻¹ | Km [3]: 461 ± 79 µM | kcat [3]: 0.582 ± 0.035 s⁻¹ | kcat/Km [3]: 1260 M⁻¹ s⁻¹

From PMC6002512, “The Defense-Related Isoleucic Acid Differentially Accumulates in Arabidopsis Among Branched-Chain Amino Acid-Related 2-Hydroxy Carboxylic Acids” (Frontiers in Plant Science, 2018)
